In patent publication US20040175824A1:
“And” between values parts separate entries of the source, which are not always exact repeats. Equal entries are not always repeated.

Target: human EPO receptor (EPO-Rc) (human) (UniProt P19235)
Assay: cell-based or functional assay

UniProt P19235, sequence (P19235 25-508): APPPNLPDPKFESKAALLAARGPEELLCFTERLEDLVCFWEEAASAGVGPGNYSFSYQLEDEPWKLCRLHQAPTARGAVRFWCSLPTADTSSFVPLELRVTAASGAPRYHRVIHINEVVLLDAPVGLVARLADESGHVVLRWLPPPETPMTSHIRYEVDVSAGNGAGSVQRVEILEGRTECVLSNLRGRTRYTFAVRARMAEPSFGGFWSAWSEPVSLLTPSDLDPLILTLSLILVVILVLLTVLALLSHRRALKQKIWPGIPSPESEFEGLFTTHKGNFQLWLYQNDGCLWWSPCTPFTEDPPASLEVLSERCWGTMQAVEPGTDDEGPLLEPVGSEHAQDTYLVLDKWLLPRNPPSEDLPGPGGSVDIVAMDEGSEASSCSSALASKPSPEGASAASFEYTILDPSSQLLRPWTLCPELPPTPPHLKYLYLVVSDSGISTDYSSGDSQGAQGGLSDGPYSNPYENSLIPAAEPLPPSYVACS

proliferation of the 32D1.9 cells (MTT, OD 550 nm); in vitro biological activity on a molar basis: 3e+06 units/µmole and 4e+06 units/µmole
Substance: Recombinant human EPO (rHuEPO) (from UniProt P01588 28-192) (ligand)
